Among the data in the Immune Epitope Database (IEDB) are Kd values, retold here.

Some targets named below: HLA-A*31:01; HLA-A*68:01; HLA-A*11:01; HLA-A*03:01; HLA-A*33:01.
Common to all, as to test: IEDB peptide-MHC binding, purified MHC/competitive/radioactivity; filed as Kd, often an IC50 or EC50 that approximates it; ≥ and ≤ were set here for values at or beyond the usual limits of such assays
The mark [1] stands for this setting: source organism: Vaccinia virus WR.
Setting [2] is: source organism: SARS coronavirus Tor2.
The mark [3] stands for this setting: source organism: Dengue virus 2 Jamaica/1409/1983.
Setting [4] is: source organism: Lymphocytic choriomeningitis virus (strain Armstrong).
Where [5] appears, read: source organism: Dengue virus 3 Martinique/1243/1999.
Where [6] appears, read: source organism: Dengue virus 1 Brazil/97-11/1997.

In general, Kd refers to the constant that tells how readily two partners part at equilibrium. For the sequence KSSSIDVDKR, the Kd in the test with HLA-A*31:01 (setting [1]) was found to be 84.4 nM; in the test with HLA-A*68:01 (setting [1]), 17 nM; with HLA-A*11:01 (setting [1]), 550 nM; with HLA-A*03:01 (setting [1]), 2630 nM; with HLA-A*33:01 (setting [1]), 8180 nM.
For DSIPISELSR, the Kd with HLA-A*31:01 (setting [1]) is 4140 nM; with HLA-A*68:01 (setting [1]), 12.3 nM; in the test with HLA-A*11:01 (setting [1]) it was 986 nM; in the test with HLA-A*03:01 (setting [1]) it was at least 44900 nM; in the test with HLA-A*33:01 (setting [1]) it was 25.5 nM.
With LTMKAIEKDR, the Kd with HLA-A*31:01 (setting [1]) came to 595 nM; with HLA-A*68:01 (setting [1]), 65.5 nM; with HLA-A*11:01 (setting [1]), 280 nM; with HLA-A*03:01 (setting [1]), 12100 nM; in the test with HLA-A*33:01 (setting [1]), 6250 nM.
The like results for YLRNYMVIK were, in that order, 35 nM, 1670 nM, 897 nM, 1.34 nM and 930 nM.
The like results for IITPVVFYR were, in that order, 1.08 nM, 0.0181 nM, 0.322 nM, 59.2 nM and 6.62 nM.
On to MSLSEQLRK, for which the Kd with HLA-A*31:01 (setting [2]) was found to be 181 nM; with HLA-A*68:01 (setting [2]), 169 nM; with HLA-A*11:01 (setting [2]), 4.01 nM; in the test with HLA-A*03:01 (setting [2]), 8.24 nM; with HLA-A*33:01 (setting [2]) it was 4730 nM.
Turning to STPIVVQMTK, the Kd in the test with HLA-A*11:01 (setting [2]) came to 14.2 nM.
SQMLLIVLK: the Kd with HLA-A*31:01 (setting [2]) turned out to be 350 nM; with HLA-A*68:01 (setting [2]), 310 nM; with HLA-A*11:01 (setting [2]), 0.503 nM; in the test with HLA-A*03:01 (setting [2]), 204 nM; with HLA-A*33:01 (setting [2]) it was 4960 nM.
In the case of NFFTELENKK, the Kd was at least 70000 nM with HLA-A*31:01 (setting [1]); 6670 nM with HLA-A*68:01 (setting [1]); at least 32300 nM in the test with HLA-A*11:01 (setting [1]); at least 61800 nM with HLA-A*03:01 (setting [1]); at least 32800 nM in the test with HLA-A*33:01 (setting [1]).
TFHTMWHVTR: the values for the Kd with HLA-A*31:01 (setting [3]) and with HLA-A*33:01 (setting [3]) were 19.1 nM and 7.95 nM, respectively.
On to AALFMYYAKR, for which the Kd in the test with HLA-A*31:01 (setting [1]) worked out at 16.8 nM; with HLA-A*68:01 (setting [1]) it was 33.1 nM; with HLA-A*11:01 (setting [1]) it was 178 nM; in the test with HLA-A*03:01 (setting [1]), 312 nM; with HLA-A*33:01 (setting [1]) it was 837 nM.
For IMVASDVCK, in that order: 991 nM, 408 nM, 369 nM, 150 nM and 3480 nM.
Consider MWTLMYFHRR, for which the Kd with HLA-A*31:01 (setting [3]) came to 33.6 nM; with HLA-A*33:01 (setting [3]) it was 29.8 nM.
Take NYSKFWYLEH: the Kd with HLA-A*31:01 (setting [4]) was 5840 nM; with HLA-A*68:01 (setting [4]), at least 70100 nM; with HLA-A*11:01 (setting [4]), at least 69700 nM; with HLA-A*03:01 (setting [4]) it was at least 70000 nM; with HLA-A*33:01 (setting [4]), 300 nM.
On to LTIKDSSNK, for which the equilibrium dissociation constant (Kd) is at least 34800 nM in the test with HLA-A*31:01 (setting [1]); 9.14 nM with HLA-A*68:01 (setting [1]); 14.9 nM with HLA-A*11:01 (setting [1]); 827 nM in the test with HLA-A*03:01 (setting [1]); at least 77700 nM with HLA-A*33:01 (setting [1]).
On to NVIEDITFLR, for which the Kd in the test with HLA-A*31:01 (setting [1]) was found to be 64.4 nM; with HLA-A*68:01 (setting [1]), 1.59 nM; in the test with HLA-A*11:01 (setting [1]), 230 nM; in the test with HLA-A*03:01 (setting [1]), 6720 nM; with HLA-A*33:01 (setting [1]), 12.5 nM.
In the case of STNLCTHSFR, the Kd is 0.941 nM in the test with HLA-A*31:01 (setting [2]); 6.19 nM with HLA-A*68:01 (setting [2]); 10.6 nM with HLA-A*11:01 (setting [2]); 297 nM with HLA-A*03:01 (setting [2]); 8.87 nM with HLA-A*33:01 (setting [2]).
In the case of AVILQNAWK, the Kd with HLA-A*11:01 (setting [3]) came out at 128 nM.
For the sequence VFHTMWHVTR, the figures for the Kd with HLA-A*31:01 (setting [5]) and with HLA-A*33:01 (setting [5]) were 4.53 nM and 135 nM, respectively.
Take EIITGNKVK: the dissociation constant (Kd) was at least 77900 nM in the test with HLA-A*31:01 (setting [1]); 233 nM with HLA-A*68:01 (setting [1]); 1200 nM in the test with HLA-A*11:01 (setting [1]); at least 78000 nM in the test with HLA-A*03:01 (setting [1]); at least 77700 nM in the test with HLA-A*33:01 (setting [1]).
For STRTIILVGY, in that order: 339 nM, 100 nM, 221 nM, 188 nM and 8020 nM.
The like results for YVKNGTKGK were, in that order, at least 72100 nM, 39.3 nM, 875 nM, 2080 nM and at least 65500 nM.
Consider SIHLTKTDKK, for which the Kd was at least 21800 nM with HLA-A*31:01 (setting [1]); 1990 nM in the test with HLA-A*68:01 (setting [1]); 278 nM in the test with HLA-A*11:01 (setting [1]); 185 nM with HLA-A*03:01 (setting [1]); at least 70000 nM in the test with HLA-A*33:01 (setting [1]).
The like results for WFLKSGAVVK were, in that order, 7630 nM, 191 nM, 116 nM, 11 nM and 4410 nM.
With RFWDLVHRER, the Kd in the test with HLA-A*31:01 (setting [6]) is at least 49800 nM; with HLA-A*33:01 (setting [6]), 19.7 nM.
Take VLCNSQTSLR: the equilibrium dissociation constant (Kd) with HLA-A*31:01 (setting [2]) is 68.4 nM; with HLA-A*68:01 (setting [2]), 1010 nM; in the test with HLA-A*11:01 (setting [2]) it was 1860 nM; in the test with HLA-A*03:01 (setting [2]) it was 435 nM; with HLA-A*33:01 (setting [2]) it was 1180 nM.
